Experimental data from patent US20050287163A1, “Mycoplasma polypeptides” (priority 2002, published 2005).
“Also recorded” adds a separate entry of the source.

How the values were obtained:
[1] = system: Mhyo membrane-induced [Ca2+]i increase in ciliated tracheal cells; experiment: Protease pretreatment of Mhyo membrane, effect on membrane-induced [Ca2+]i increase; format: cell-based, porcine; settings: pretreatment of the membrane for 8 hours, 37° C.
Experimental: FIG. 6 contains four graphs plotting [Ca^2+]i response in ciliated porcine tracheal cells inoculated with Mhyo membranes. Each trace indicates the [Ca^2+]i changes in each tracheal cell. The arrows indicate when administration occurred. (A) The membrane preparation (100 μg/mL) increased [Ca^2+]i. (B) Digestion with proteinase K blocked the membrane-induced increase in [Ca^2+]i. The membrane (100 μg/0.1 mL PBS) was incubated with proteinase K (2 μg) at 37° C. for 8 hours before it was applied to tracheal cells in 0.9 mL Krebs-Ringer bicarbonate (KRB) buffer. (C) Digestion with trypsin potentiated the membrane-induced increase in [Ca^2+]i. The membrane (100 μg/0.1 mL PBS) was incubated with trypsin (6 μg) at 37° C. for 30 minutes before it was applied to tracheal cells in 0.9 mL KRB. […] The soluble protein was prepared by subjecting the trypsinized membrane to ultracentrifigation (100,000× g, 60 minutes) to obtain the supernatant.
Mycoplasmas lack cell walls and have only one type of membrane, the plasma membrane (Razin S. (1993) Mycoplasma membranes as models in membrane research (Chapter 2), In: Subcellular Biochemistry. Vol 20: Mycoplasma Cell Membranes, edited by Rottem S, Kahane I. Plenum Press, New York. pp. 1-28). The Mhyo membrane was prepared by osmotic lysis of the organisms and tested to determine if it increased [Ca^2+]i in ciliated tracheal cells. […]

[2] = system: tryptic Mhyo polypeptide fragment-induced [Ca2+]i increase in ciliated tracheal epithelia; experiment: Soybean trypsin inhibitor on tryptic Mhyo polypeptide fragment-induced [Ca2+]i increase; format: cell-based, swine; settings: inhibitor 10 U/mL, incubated with preparation 37° C. 10 minutes
Experimental: FIG. 14 is a graph plotting [Ca^2+]i increase in porcine ciliated tracheal cells incubated with tryptic Mhyo membrane preparation pretreated with a soybean trypsin inhibitor (TI). […] TI was incubated with the tryptic membrane preparation at 37° C. for 10 minutes prior to administration. […] Each trace depicts [Ca^2+]i changes in one cell.
(§1) According to a recent report, trypsin at 0.1 U/mL can increase [Ca^2+]i in guinea pig tracheal epithelia (Oshiro et al., Life Sci., 71:547-558 (2002)). Since the estimated trypsin concentration in the [Ca^2+]i experiments described herein is about 1 U/mL, we tested whether trypsin plays a role in the observed tryptic fragment-induced [Ca^2+]i increase.

[3] = system: trypsin-induced [Ca2+]i increase in swine ciliated epithelia; experiment: Soybean trypsin inhibitor on trypsin-induced [Ca2+]i increase; format: cell-based; settings: inhibitor 10 U/mL; trypsin 10 U/mL
Text: as §1

Molecule | effect of protease pretreatment on membrane-induced [Ca2+]i increase [1] | effect on tryptic Mhyo polypeptide fragment-induced [Ca2+]i increase [2] | effect on tryptic Mhyo polypeptide fragment-induced [Ca2+]i increase ([2]; listed as TI) | effect on trypsin-induced [Ca2+]i increase [3]
proteinase K: proteolytic enzyme used to pretreat the membrane (protein, UniProt P06873 106-384, looked up) Proteinase K: AAQTNAPWGLARISSTSPGTSTYYYDESAGQGSCVYVIDTGIEASHPEFEGRAQMVKTYYYSSRDGNGHGTHCAGTVGSRTYGVAKKTQLFGVKVLDDNGSGQYSTIIAGMDFVASDKNNRNCPKGVVASLSLGGGYSSSVNSAAARLQSSGVMVAVAAGNNNADARNYSPASEPSVCTVGASDRYDRRSSFSNYGSVLDIFGPGTSILSTWIGGSTRSISGTSMATPHVAGLAAYLMTLGKTTAASACRYIADTANKGDLSNIPFGTVNLLAYNNYQA | blocked; also recorded: abolished |  |  | 
papain: proteolytic enzyme used to pretreat the membrane (protein, UniProt P00784 134-345, looked up) Papain: IPEYVDWRQKGAVTPVKNQGSCGSCWAFSAVVTIEGIIKIRTGNLNEYSEQELLDCDRRSYGCNGGYPWSALQLVAQYGIHYRNTYPYEGVQRYCRSREKGPYAAKTDGVRQVQPYNEGALLYSIANQPVSVVLEAAGKDFQLYRGGIFVGPCGNKVDHAVAAVGYGPNYILIKNSWGTGWGENGYIRIKRGTGNSYGVCGLYTSSFYPVKN | abolished |  |  | 
soybean trypsin inhibitor: soybean trypsin inhibitor (protein, UniProt P01070 25-205, looked up) Trypsin inhibitor A: DFVLDNEGNPLENGGTYYILSDITAFGGIRAAPTGNERCPLTVVQSRNELDKGIGTIISSPYRIRFIAEGHPLSLKFDSFAVIMLCVGIPTEWSVVEDLPEGPAVKIGENKDAMDGWFRLERVSDDEFNNYKLVFCPQQAEDDKCGDIGISIDHDDGTRRLVVSKNKPLVVQFQKLDKESL |  | failed to block | failed to inhibit | inhibited
